The values that follow come from US20210318338A1.

Several values for one entry are separate records, joined by “and”; a condition that tells them apart may be missing. Identical values can stand only once. Like-named read-outs stand apart in the source and are kept apart here.

Common to all, as to assay: cell-based or functional assay
The target in experiment [1] is protein S (purified, free form) (UniProt P07225).
Experiment [2] has the same target. This is another data set of the same source.
For experiment [3], the target named is tissue factor pathway inhibitor alpha (TFPIα) (UniProt P10646).
UniProt P10646, sequence (P10646 29-304 limits assumed): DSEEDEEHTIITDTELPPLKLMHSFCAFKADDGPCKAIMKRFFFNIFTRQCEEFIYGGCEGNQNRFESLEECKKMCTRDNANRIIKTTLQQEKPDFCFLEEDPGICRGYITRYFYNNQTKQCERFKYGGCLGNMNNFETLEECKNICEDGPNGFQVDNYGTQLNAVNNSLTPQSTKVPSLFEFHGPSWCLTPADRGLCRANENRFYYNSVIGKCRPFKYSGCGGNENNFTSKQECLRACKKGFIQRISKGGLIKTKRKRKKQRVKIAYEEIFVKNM

In the case of “C4b-binding protein (C4BP) without bound protein S (from UniProt P04003 49-597; P20851 18-252)”, the figures for the loss of the TFPIα-cofactor activity of protein S in the FXa inhibition assay (S2765 absorbance; 5 nM protein S, 2 nM FV-Short, 0.25 nM TFPIα, 0.3 nM FXa) in experiment [1] and in experiment [2] were 3.13 nM and 6.25 nM, respectively.

B1: protein S (purified, free form) (protein, UniProt P07225 42-676, looked up)
chain: ANSLLEETKQGNLERECIEELCNKEEAREVFENDPETDYFYPKYLVCLRSFQTGLFTAARQSTNAYPDLRSCVNAIPDQCSPLPCNEDGYMSCKDGKASFTCTCKPGWQGEKCEFDINECKDPSNINGGCSQICDNTPGSYHCSCKNGFVMLSNKKDCKDVDECSLKPSICGTAVCKNIPGDFECECPEGYRYNLKSKSCEDIDECSENMCAQLCVNYPGGYTCYCDGKKGFKLAQDQKSCEVVSVCLPLNLDTKYELLYLAEQFAGVVLYLKFRLPEISRFSAEFDFRTYDSEGVILYAESIDHSAWLLIALRGGKIEVQLKNEHTSKITTGGDVINNGLWNMVSVEELEHSISIKIAKEAVMDINKPGPLFKPENGLLETKVYFAGFPRKVESELIKPINPRLDGCIRSWNLMKQGASGIKEIIQEKQNKHCLVTVEKGSYYPGSGIAQFHIDYNNVSSAEGWHVNVTLNIRPSTGTGVMLALVSGNNTVPFAVSLVDSTSEKSQDILLSVENTVIYRIQALSLCSDQQSHLEFRVNRNNLELSTPLKIETISHEDLQRQLAVLDKAMKAKVATYLGGLPDVPFSATPVNAFYNGCMEVNINGVQLDLDEAISKHNDIRAHSCPSVWKKTKNS
modifications: contains the modified amino acid gamma-carboxy glutamic acid (positions not given)
With B1, in experiment [3], the inhibition of FXa by TFPIα (S2765 absorbance) with phospholipid vesicles and 2 nM FV-Short, protein S titrated was 1.25 nM and 5 nM; the inhibition of FXa by TFPIα (S2765 absorbance) without added FV-Short is over 10 nM.
